# Data reported in the domain aggregation screens of Martell et al. (2025).
# Assay: soluble fraction after stress (log2 fold change); higher = more stays soluble; pooled small domains, quantitative proteomics
# Settings: stress: 50 degC
# In short: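 Quantitative proteomics served as the high-throughput read-out for pooled custom libraries of small protein domains. Each was stressed at 50°C. Aggregation propensity is expressed as the base-two log fold change in soluble protein after stress. A higher value means a larger share of the protein remains in solution.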
row,Sequence,soluble fraction (log2)
1,HMKADIEQVQRAFDTLDPKNQQLVLDAMKAATAELDPNSDQFKTNTEFINDNQKALDRHAKAS,0.125
2,HMQMSWDAVKARLQDIVNNEDKTKPFNDEMLASKLKEQGIEIARRTVVKYRQQLGIPAARLRKK,-0.468
3,HMGGREEAGTDIARLLGYINDIHGEELIAKLEYYQKMLGSENFAVLMSRLPDGQKKELREQNLYSEYV,-0.145
4,HMHNPSYDMSKDVDILVMKFRDYNNLTDDEARFLLDKAKDAYYNTGKEILSDNEYDTLEKSLGQE,0.178
5,HMQISDDGFILKIINEVVAENPKSISDYISGKEAAVGFLVGQIMKKTRGKANPKLVNEMLITELAKLKN,-0.0439
6,HMHRGEIVDGVIASVNPRSILIDIGGKSDALVHPRELERMSDEDLRSLKPGQDVSVYVIETDSDGTMLVSL,-0.0402
7,HMPNNNDIVLDRVSFGYHEKEVLHGIDMTIREGTVNALVGPSGSGKSTIAKLIAGLWDVDGGSISF,0.154
8,HMIYWGTMVDKIYEVLSLAGKPLSLMEIYQQVKVFFPNSTKSSIEASMRLDARHRFKYDVEGHVYSLVD,-1.3
9,HMTRIHEEVVNQVHDLVKEGRFKAGDQLPSERELAEIFKVSRTSVREALRALETQGLIISRTGMGNFIAD,-0.0448
10,HMSDKFNALWIILNKLDKKEKVTARSLMEDLEVSERSVYRYITTLQVAGFPVDYDRAVNSYVFSDGYTLK,-4.08
11,HMAEVPSLIGKSLDAAKQAIIDAGFKVGSVSYDNSDSYGKGQVMWQQYEPSTKVKKGSSISIKVSKGS,0.00591
12,HMTKLSPKEKSILHIIGDNAGIKSGQIAKRLDIPSPTVKRILSDLVSQNLIEKFGTGPGTNYSI,0.0531
13,HMLDPVLQREKDESFTDYHIRLFKNKDTYHIDTKTIATLLNKDQGTNYDESKWRKDFKQYERWNDYIMSKN,0.145
14,HMDPTIRRGELIDAASRLFLSKGYAATSVRDILDEVGNRTASPSVFYYYFKSKEEIYQAVLRRHSE,-0.847
15,HMRMETRILTADESGIRLDAFLASRLAVSRSLAASLIDDGNVTLNGTVPKKKTAVNVGDILEVAMP,-0.234
16,HMKKKLPRYLQEQKYGNGMVFYRYNPTARYIDEGIVTRTNLGSDLSIAKKKANEFNKLIDAFLQQQSE,-0.92
17,HMPRVSIEKIKKVVELLKHNPDYTYSKIGNIVGIGRKTVSGINNGKLYTDLVEELGINEFPI,-0.292
18,HMRIQTVDYNTFISMVEDGKVDAAEIQQQENRILFSDQDQKVYKTAMVPDDDLTQRLLDAGVSTNG,0.274
19,HMKDANIQIGKRLREARLNMNLEKSEIADVLGVTVEHYRKLEAGVMGISVDKVLTLYHKYGIDPTYLITG,-1.19

row,Sequence,soluble fraction (log2)
1,HMLNAPFGFRIEDDTLIPIPEEAKVVRQIFRYYLQGMGFGKIAQELNGQDVPGKPWGKERIKYILSNEKYI,-2.09
2,HMGIEIKLLMSFMTDSGRKVSLFVTDPREDVTETEIKQVMDLIIEKNIFAPNGEDIVSAKEAKIVQT,-1.25
3,HMTTIFDNINGELRRRHLTQQDLAKTIEIDRRTWSKWQDKNDMPASVLLQIAKWLNVTLDYLTRD,-2.08
4,HMGNIIITPNPASDFIKIISNSPIIKFGFYDIYGNTINKKFNDNSINISDLPVGMYLINLNERYFKLLK,-0.0951
5,HMNYGDVIEGQIMHVDRDELLVDIGSKSEGIIPAREFSTLTDEERAALSVGDHVLVFVVQAENQEGQAV,0.0712
6,HMGADGIPGKNGENGETSYVHFAYATSADGKTGFSTTDTVGKTYMGQYADFEKADSEDPTKYRWGKFQGP,0.102
7,HMQFQVHEIKGKEYYIHVVEKGNTLYAISRMYSVPIETLKEENPRLNTTELTIGDRLLIPLDEVKRKNIE,-0.128
8,HMVTEKNALTIEIEDLTKRFGNQRESLLPILQEVQLKHGHISDFAQQEIARLLDIHPVEVYGVVTFFSFLS,-2.21
9,HMEDYYKILGVQSNSNPDDIKKAYRKLSLKHHPDRGGDASEFKKINEAYQTLGTPEKRKMYDMQQNN,-0.0117
10,HMELDLPLEELGLSTRVLHSLKEEGIESVRALLALNLKDLKNIPGIGERSLEEIKEALEKKGFTLK,-0.0498
11,HMKNEVENLSYMINRIIEYRDLNNLSNKNLANKIGISEALLSYILNGRRKLSKEIQRKIALFLLND,-1.49
12,HMSDHKNANFTKVVKVAQELLQDEDDKAGITPTLIEEKISAVLAMNRRWAEGLDRAAVADELIRRFSIW,-0.42
13,HMGFSERLAQAMSHAGYTQGGLAKAVGMAQSSVNKLLNNANSSRKTVEIASVLGVRPEWLSTGEGDML,0.00207
14,HMPKYLNIYHELAQRIQEGALPAETKLPSETELMQEFEASRGTVRKAIDALQEKGFVRKHQGKGVFVLSQ,-0.371
15,HMKSIEVPNLINMTLRKAKIELIDNEFNLDTVIYEYNPNIREGRVSLQIPESGTILKSGSNISIHISKGIP,-1.53
16,HMQMRKENKILVTDIGEIDEVKVIFDDDNKPYLYSYNGEDEFYRPDETYKFFDNKEQAEEYVREN,0.0625
17,HMQDLVAVPALTGLTENDAINKAKANNLIAVVSEYKTENSVEPGKVLEQDPESSTEVKKGTIIKLVVS,≥ 0.62
18,HMEPDTVVVPNFVGKVYASEIEGNEAYSDFTFVIKEGNDPEQDIGVVLKQTPNEGLEVKKGKEITLTINQ,-0.0593
19,HMTVAQEIEARRATIRSSDPAEMARFIRWLIMEGHTEPAADELKKYAENFPEASATTKQLQALLAAR,-0.177
